Experimental data published in patent US20180355056A1 (Novartis, published 2018).

Experiments:
Human FXI zymogen = target: T1, Human FXI zymogen (human, UniProt P03951 19-625); assay: SET KD compared with the BIACORE KD for the FXI catalytic domain
T1 construct: also called huFXI; zymogen FXI

Human FXI activated = target: T2, Human FXI activated (human, UniProt P03951 19-387; P03951 388-625); assay: as above
T2 construct: The activity assay used Kordia HFXIa 1111a; also called huFXIa
T2 sequence (P03951 19-387 C226S, chain 1 of 2): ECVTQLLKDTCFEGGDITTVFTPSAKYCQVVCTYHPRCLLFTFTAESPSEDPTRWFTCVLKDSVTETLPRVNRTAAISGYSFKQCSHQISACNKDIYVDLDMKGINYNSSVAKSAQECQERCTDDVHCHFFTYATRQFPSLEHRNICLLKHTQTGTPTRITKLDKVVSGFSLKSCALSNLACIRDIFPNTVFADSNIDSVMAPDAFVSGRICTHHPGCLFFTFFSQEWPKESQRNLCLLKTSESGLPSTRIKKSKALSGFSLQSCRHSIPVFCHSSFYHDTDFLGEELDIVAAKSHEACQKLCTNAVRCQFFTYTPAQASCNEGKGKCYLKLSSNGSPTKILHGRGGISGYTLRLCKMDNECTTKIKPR
T2 sequence (P03951 388-625, chain 2 of 2): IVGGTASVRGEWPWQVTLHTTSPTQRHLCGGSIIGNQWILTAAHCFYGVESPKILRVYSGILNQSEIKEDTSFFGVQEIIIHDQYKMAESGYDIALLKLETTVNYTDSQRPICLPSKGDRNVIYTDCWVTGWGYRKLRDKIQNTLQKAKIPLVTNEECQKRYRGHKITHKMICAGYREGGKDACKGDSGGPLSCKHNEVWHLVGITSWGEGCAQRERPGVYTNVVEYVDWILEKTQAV

T1 sequence (P03951 19-625 C226S): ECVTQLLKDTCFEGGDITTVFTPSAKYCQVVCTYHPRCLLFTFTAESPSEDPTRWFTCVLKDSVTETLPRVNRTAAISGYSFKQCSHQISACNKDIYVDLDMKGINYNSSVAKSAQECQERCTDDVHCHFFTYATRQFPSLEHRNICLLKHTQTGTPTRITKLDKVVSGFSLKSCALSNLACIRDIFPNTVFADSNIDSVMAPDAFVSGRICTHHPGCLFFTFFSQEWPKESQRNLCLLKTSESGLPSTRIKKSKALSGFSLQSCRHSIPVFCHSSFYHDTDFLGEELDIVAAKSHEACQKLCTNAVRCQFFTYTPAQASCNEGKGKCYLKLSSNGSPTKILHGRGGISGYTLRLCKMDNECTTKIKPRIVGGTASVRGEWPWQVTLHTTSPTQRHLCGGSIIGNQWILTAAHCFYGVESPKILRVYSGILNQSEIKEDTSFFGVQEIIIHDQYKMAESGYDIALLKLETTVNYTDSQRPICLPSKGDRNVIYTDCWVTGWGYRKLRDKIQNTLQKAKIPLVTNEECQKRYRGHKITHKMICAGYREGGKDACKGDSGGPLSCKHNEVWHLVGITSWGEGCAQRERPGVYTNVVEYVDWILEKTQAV

fold higher affinity than to the catalytic domain (Human FXI zymogen): 300 times
fold higher affinity than to the catalytic domain (Human FXI activated): 66 times
B1: NOV1401-Fab (Fab, V domains shown)
VH: QVQLLESGGGLVQPGGSLRLSCAASGFTFSTAAMSWVRQAPGKGLEWVSGISGSGSSTYYADSVKGRFTISRDNSKNTLYLQMNSLRAEDTAVYYCARELSYLYSGYYFDYWGQGTLVTVSS
VL: QSVLTQPPSASGTPGQRVTISCSGSSSNIGSNDVSWYQQLPGTAPKLLIYKNYNRPSGVPDRFSGSKSGTSASLAISGLQSEDEADYYCSAWDQRQFDVVFGGGTKLTVLG
notes: also called Fab portion of NOV1401
